# Results published in paper PMC4372375.
# Molecular target: pancreatic polypeptide (UniProt P01298)
binder,measurement,value
APLEPVYPGDNATPEQMAQYAADLRRYINMLTRPRY [pancreatic polypeptide],"LDH release assay, % cell death of SH-SY5Y cells after 30 h with 10 μM PP oligomers formed with heparin (PP incubated without heparin: no significant LDH release)",35%
